assay: soluble on expression in E. coli; label from the status in PepcDB or PDB records

**Q.** Which “soluble on expression in E. coli” value does the source give for “MSLDFAARQAAFADALLHPDRPVPDGVINARGEPDAARFAVYRNNVFVGLTKALAQRFPVTERLVGSEFFAAMARAYVQDHKPASPLIMEYGDDFPDFVAAFEPAGTLVYLPDVARLEAAWTEAYHAADSAPLDLAAFGAVAPEMLSDLRLLPHPSARLILSNFPVGSIWSAHQEAVVSPVSDWGGQAVLVVRPEMSVNVHVLPPRDAVFAAALFNAATLGEAAEAAFAAAPEFDFGTALVGLAGIGAFRAFQQYKGNEGHHHHHH” here?
**A.** Its value is “not soluble”.

**Q.** With “MSLDFRSADFLRTHISDTMAFYHPRCIDSAGGFFHYFRDDGSIYNATHRHLVSSTRFVFNYAMAYLQFGTAEYLDAVHHGLSYVRDVHRNPATGGYAWTLCDDRVEDDTNHCYGLAFVMLAYSCGLKVGIKQAREWMDETWCLLERHFWDAEYGLYKDEADAQWNFTRYRGQNANMHMCEAMLAAYEASGEQRYLERALVLADRITRRQAAKADGLVWEHYDMRWEVDWDYNRDNPKHLFRPWGFQPGHQTEWAKLLLILDRYIEVEWLVPVARSLFDVAVARSWDAVRGGLCYGFAPDGTICDDDKYFWVQAESLAAAALLATRSGDERYWQWYDRLWAYAWQHMVDHRYGAWYRLLDGDNRKYNDEKSPAGKTDYHTMGACHEVLNVVWTKSEGHHHHHH” as the sequence, how does the “soluble on expression in E. coli” value read?
**A.** The value was “soluble”.

**Q.** For “MSLDGGTLGATNRFLTRDGSPWIPIAGEMHYSRIAAERWDTELAKMAAAGIDVVSTYVFWNHHEEREGEWDFSGNRNVRRFVELCARHGLHVIVRLGPFCHGEVRNGGLPDWLYGKSYEVRSLDAGFLDAVRGLYAHIAQQLRGLYFKDGGPIIAAQVDNEYMASSAPWEMTTGISREWVPSGHDGAGYLERLRDIAIEEGIDPPMFTCTGWQSPVPDDMLPLWGGYAYRPWLFYDGVGAEGMTEHPATDEYRYRRLHGSSTSDGFDPPYDPDSRPYACCEMGGGMFNSYDYRFVLPKRSVDAMANIKLGSGCDFLGYYMFHGGTNPKGAAGFLNEGQTPKRSYDFQAPLGKFGQVRESYRRLRTLHEFVKAFGPELAGMPVSLQDGQDRIDPSDSETLRYAVRSDGERGFVSIDNFQDHARVPSRHGEQIDVTTGTGERIRFTGIGLAEGENCILPFNMDLDGVRLVRANLQPVTVLRVPGRPFRTFVFLKPDGMDELTFHFEGDIQDVTVGKADFERFMVRDAAEIVCVTRALAGRMTVLDGGLAFVDDDNALLYEDGDGWTLESPRAENGIAAYPEGLLGSPRPVEPVSVYARMRRLHADRYEIALPAGMGRLFRDQRQVADVMLNIAYQGDIGWLFCGDVLIADNFCNGETWQVGLRDYADAIDAAGGKLTLVVTPLRRGVRVKVTSSMAARLEQSDACVADVTDVYATPVYHMPVGEGHHHHHH”, which “soluble on expression in E. coli” value is on record?
**A.** The value was “not soluble”.

**Q.** Which “soluble on expression in E. coli” value does the source give for “MSLDHTYVFAVGGLDEVGKNSYAIEHNEETIMVDYGIKFASSDLLGINGIVANTSYFVENNRPIDALLLTHGHEDHIGGIPYLLQTTEVKKIYAPLLATELIKRRLSEFRDIKYNPEIIPFGDDSKVSTKYFEVDFFRVCHSIPDSFGMCIKTPNGRIVSAGDYRYDFGKDTDDTNIHKLVEMSNRGIDIFLSESTNSDQPGFSPSEDNIINNIETLIKNSKGRVFVATFASNLGRIEKIIERAIKSGRRVCIMGRSMEANIKTSKKLGYLKISESDFLTTKELNECKDREILVVLTGSQGEEMAALNQMALGKHPRLSLKPSDSIIMSSNPIPGNFKSVELLINRLYKQGVNMYTNSPNFRIHSSGHATIQELQMMFKILKPKYLIPIHGESKMLSAMKRNANSIGINPENVFVLTNGLKVELKDHNLKLTNQRIDACPIYIDKKVASKSTTDLINKRKLLSEEGIFNIIVLIDHKNKKVVKNPMLSTRGCFYAKDSSSLITKISFSVKDEIESLLNKEAEASKEKIKQAVANVVKFYVWKNKKKNPIVTTTVFDIEGHHHHHH” here?
**A.** Its value is “not soluble”.

**Q.** Which “soluble on expression in E. coli” value does the source give for “MSLDKKAVFADVAEKDASFINENYYISPSLDTLSSYSLLQLRKVPHLVVGHKSYGKIEFLEPVDLAGIPLTSLGGVIITFEPKTCIIYANLPNRPKRGEGINVRARITCFNCYPVDKSTRKPIKDPNHQLVKRHIERLKKNPNSKFESYDADSGTYVFIVNHAAEQTEGHHHHHH” here?
**A.** Its value is “soluble”.

**Q.** Which “soluble on expression in E. coli” value does the source give for “MSLDKLLERFLNYVSLDTQSKAGVRQVPSTEGQWKLLHLLKEQLEEMGLINVTLSEKGTLMATLPANVPGDIPAIGFISHVDTSPDCSGKNVNPQIVENYRGGDIALGIGDEVLSPVMFPVLHQLLGQTLITTDGKTLLGADDKAGIAEIMTALAVLQQKKIPHGDIRVAFTPDEEVGKGAKHFDVDAFDARWAYTVDGGGVGELEFENFNAASVNIKIVGNNVHPGTAKGVMVNALSLAARIHAEVPADESPEMTEGYEGFYHLASMKGTVERADMHYIIRDFDRKQFEARKRKMMEIAKKVGKGLHPDCYIELVIEDSYYNMREKVVEHPHILDIAQQAMRDCDIEPELKPIRGGTDGAQLSFMGLPCPNLFTGGYNYHGKHEFVTLEGMEKAVQVIVRIAELTAQRKEGGSHHHHHH” here?
**A.** Its value is “soluble”.

**Q.** Which “soluble on expression in E. coli” value does the source give for “MSLDKLNAISIFCKVIETQSFTLAAKQQNISVAMASKLVSQLEEHLKTRLLQRTTRKIMPTEAGMMYYQRCQGILLDLDEADSSITQLTSSLQGNLLISVPRDFGLLFIAPNLPTFMAKHPHLHIEVEFNDKKIDLLSEGYDLALRIGYMEDSSLVSRKIGTTTVHFAASPNYLETNGIPQTPDDLEHHNGLLYKNAMNQVNWVGSRINQTQRFKIQSKVVSNSGFALLNMAKAGLGIANLPKFILGRAFEKGELIEILPEYKQQKLEIHVVYPNRRHLPIKVTGISLNFEGHHHHHH” here?
**A.** Its value is “not soluble”.

**Q.** Which “soluble on expression in E. coli” value does the source give for “MSLDLKFTDFLDPRVKSSLGEEEIVFPPYDANQLRDILQHRSDVAFKADALSDDVLPLCAAFAAQEHGDARRALDLLRTAGELAERDQAENVTEDHVRRAQDKIELDRVVEVVRTLPTQSKLVLYAILLLEDNGVHNVNTGEVYNIYKTLCDELDADVEGHHHHHH” here?
**A.** Its value is “soluble”.

**Q.** Which “soluble on expression in E. coli” value does the source give for “MSLDLKQVLRATMVKGVLQRGTIALGNDPGVLRIYTRAACPGTLAKNYLGEWCFASKVAEEASPRVHVVGDIHGNIEALFKVLIRTKLFILDEPMSNESYEGYEDPEEPFSVKGWGVHPRYAVEGTQKYIVKDYDHIYLFLGDYVDRGSFSIECLVVLLGLKILFPNAVYLLRGNHETRACLQRGQLFQELIHKYEYVEASKITDRLLRLFDALPTCALINDYVFAVHAGIYSKNASLADIEKYCTKRAPCSKFHTKAPYFDPLHNMLWADFVEDQPAIDLSQDNRRRNTGIVFYPSTVKEFLKNEGLGLFIRGHQSTPFGVSISQTGKLVTVSINSDSTPTWLGAVLTLVHPADADASESISPVNLASEGHHHHHH” here?
**A.** Its value is “not soluble”.

**Q.** Which “soluble on expression in E. coli” value does the source give for “MSLDMKEWEIFYNKIMEDFGFDKDKDVESAVILNNILENANTIPVDKLKDIIEGREVFIFGAGPSIKKHINILKELREINYKNPIIVADGACKAFLEENIIPDIIVSDLDGDLEALFECNRKGSIIVVHAHGDNIEKIKKYVPKLKNVVGSCQIPNYKELNLRNVINFGGFTDGDRCCFLAYHFKAKKLILGGMDFGIYITKYSRPNIKEDIAIGDEIKIKKLEYAKTLINYLKDKIEIEFLKEGHHHHHH” here?
**A.** Its value is “soluble”.

**Q.** With “MSLDPEDVYDGGYGSKHSPVQLRIGNGGAGQSGLVKELADAFIKSKVDSGSAPFKVAWYKSDTTVTINYLKDGIVDVGITYSPVAERISIKHGISESPSYYAFRDHFMLIGPPSNPAKLSGDSDIADMFSKMHDAAEAGNTKPPVRFLSRYDKSATNIKEAELWLSIGQVPWATAYSTWYHQYITFPIQALTAAILLREYTITDYGTYLSIPRGLRDQMVIYKKGTNDADDPLLNPAHLLVGARAKNAEMAKEFAKWLVSKEGGQKVIEGFKKDGQQLYSPAPYRHEGHHHHHH” as the sequence, how does the “soluble on expression in E. coli” value read?
**A.** The value was “soluble”.

**Q.** For “MSLDPFSIVQDFRSIAGEEALEIAESGEENDNEQFQNWELEAKFWDLVGLLVEYRTSETVDKDINVHSYNSNVVFQKQLLQSNKGIYEIWLIKSWLEANIGIPERPSSLCTTKWSSSMIAGTVKSMDSDSILRDPTTNLQPDDRQNDHAFFVYAFRLLLAGQFEKLTEECEFTDNLTLNLILRGMESYVDPNVDTDMTDEYASQQGIKKHALWRRSVYALSQDPLLDPYEAAIYTYLSGDSPTNLRIDGLDWETELLIYVNQIWNVTMENYLIEHGRVDNDELITDMDTACPSLSQVLNILAAKYPDESEHPIRVLTASVLLNTIEPVMKSSTDMLLDVIKGRDEDNALFNESYLLRILTNLTIFLDIVSPDTIDISNKSKLLTSYISLLSYYGLYDVIPVFVSFLSQEEIVETYSFFLTNLIDPNLRQKQMEISKYLGLPIANILRRTAQRIFEETDQYYIVDSDIELTNEVSEVDQRLMNGVEWLIENGLYTDSIDTIIALSRRFLINGKVKALELFVDNHDVPNLLKEYQLERLSSQEEDHDLKTTELLQYTSLLSTFKKQEEWVKSSQLFNTESNLRSLIKQFKGFSNTIIKLVTTFLVDLIDNEEVNDSDVLYEIRALYTPFLIMELHNNLISASENLKVSTFVQEAIDLSILVANETDKIYLLFQSNGKLTTYLQMVAKASALFGREGHHHHHH”, which “soluble on expression in E. coli” value is on record?
**A.** Its value is “not soluble”.

**Q.** With “MSLDREKANKNLLKILEAINGNSLVLFKSFEDLDSFYKYLKREITKTNIKNKNIHVYEQGMDGKEAKELKERFEKIGGILLATGRFAEGVDIPGEALVGVVIDSLPFPVPTPLILREQKILEERFKIRGVRDAHWRAFLMTSFDRMARTLVQMIGRLIRTENDYGVVVIQDKRFADWVGRVMREKGEGHHHHHH” as the sequence, how does the “soluble on expression in E. coli” value read?
**A.** The value was “soluble”.

**Q.** Which “soluble on expression in E. coli” value does the source give for “MSLDRILTFDCYGTLIDTKPVFDAISNIAKNNILNSKDAVNIYVNYEDRLMYGETYIPYDKLIKQVLEYCDMELVTNVFSKSYDEIISVHKRLKPFKEVVESLEKIHKKGYELALMSNSVHDIIDYNLDALGNVFNNVFLSEDIHAYKPQLKFFKYVEERLELKQKKHCHIAKGYWWDIVPCSKLGWRKIWVNRENKKGNKCHEPYEEVHTLDEVINLIEGHHHHHH” here?
**A.** The value was “soluble”.

**Q.** With “MSLDRPRCCLRGKECSINRFQQVESRWGYSGTSDRIRFSVNKRIFVVGFGLYGSIHGPTDYQVNIQIIHTDSNTVLGQNDTGFSCDGSASTFRVMFKEPVEVLPNVNYTACATLKGPDSHYGTKGMRKVTHESPTTGAKTCFTFCYAAGNNNGTSVEDGQIPEVIFYTEGHHHHHH” as the sequence, how does the “soluble on expression in E. coli” value read?
**A.** Its value is “soluble”.

**Q.** Which “soluble on expression in E. coli” value does the source give for “MSLDRSNTVELHAAGAQSAQGARPDQEDEYIILTPGGSPNEIGDSIAFFAVFDGHGTGIVSNHAKEHIPLLLFESDEFRSGNYERAMQAAIDKEDELLLQGFREGQNFFATSGSTASLALVDMKNGVLVVGNIGDSHILMAERDPENGQVKSIERLTTSHKPESADEKARIEKAGGHVHSHHDISRIGSLNMSRALGDLQYKTPLISAAAAPKTEGQKFACAPDPQNVSSQDGAQAGTGRDDFITVEMSFRRIDLHKEKQYLLALTTDGVTNALDDGKIMNGIAEMFNTGSKADEVARKVVDQAASTEYADNATCVTVFLNGTEARLAEGHHHHHH” here?
**A.** Its value is “soluble”.

**Q.** With “MSLDRTLRGRVEGKVVLITGATSGIGKATARKLAEAGAKVLTIARDEHKIAETQAEFAELGLTLQVYQGDLADLSQGEAITRQIVAEHGGVDILINNAGRSIRRAIEDSFDRFHDLERTMQLNYFGTLKVIMGLLPTMIEKKKGHIINISSIGVLTNAPRFSAYVASKSALDAWVRTAASEFADKGVNFSIINMPLVKTPMVAPTKVYEQVPMMTPEEAADLVCDTIINKHVRLATRLGVFGQVIHALAPRVAQVIMNTSEGHHHHHH” as the sequence, how does the “soluble on expression in E. coli” value read?
**A.** The value was “not soluble”.

**Q.** For “MSLDSSPHSQVNDPLESFNRQMWTINYDYLDPYVVRPVSLFYVGYVPKPVRSGIANFLSNLDEPASMVNNLLMGNGTKAVDHFNRFWINTSFGLLGLIDIASEAGIKKYDDKAFSDAVGHYGVGNGPYLMVPGYGPYTVREVTDVVDGMYFPLAYLNIWAGVGKWALEGMETRAALVSQEALLQDSPDPYSLARDAYLQRQAFKAEIQVDDYDPEEEEYLDEYLNEGEGHHHHHH”, which “soluble on expression in E. coli” value is on record?
**A.** Its value is “soluble”.

**Q.** For “MSLDSWSRNFELLINSRTPLIWIRTKEEERLYKVIDKSCKKLNIKRFVSWDCVNGIKGVLNENGKFSNNPMGVLNWIKAQTSEIPTILLVRDFHKFYDDPSISRTIKELSSSLRETNNNLILSSHILPSSEELDDLITILNLPLPDLSELTALIKKIAFNTDSDLSEQDLNELAIASSGLSEIKVKQVTAKALAQRGKISKFDIKDMLEEKKQVIARSEGHHHHHH”, which “soluble on expression in E. coli” value is on record?
**A.** Its value is “soluble”.

From the DeepSol protein solubility set
